From patent US5650391

Tests used:
[1] = biological target: low density lipoprotein receptor-related protein/a2-macroglobulin receptor (LRP) on rat hepatoma MH1 C1 cells (rat)
[2] = biological target: low density lipoprotein receptor-related protein/a2-macroglobulin receptor (LRP) on rat hepatoma MH1 C1 cells (rat); remark: listed apart in the source
[3] = biological target: human low density lipoprotein receptor-related protein (LRP) on human hepatoma HepG2 cells (human) (UniProt Q07954)
[4] = biological target: TFPI binding sites on rat hepatoma MH1 C1 cells (receptor not identified); test: binding of ^125 I-TFPI to MH1 C1 cell monolayers at 4° C. (saturation with Scatchard analysis, and competition by unlabelled TFPI)

Row | inhibition of ^125 I-TFPI degradation (trichloroacetic acid-soluble radioactivity) by MH1 C1 cells, 4 h at 37° C. [1] [%] | degradation of pre-bound ^125 I-TFPI in a single cycle of endocytosis in MH1 C1 cells [2] [%] | degradation of pre-bound ^125 I-TFPI by HepG2 cells (single cycle endocytosis assay) [3] [%] | functional activity (stoichiometric inhibition of factor Xa) (factor Xa) [%] | Kd [4] [nM] | Substance
1 | 80 | 80 | 65 | – | – | receptor-associated protein (RAP), 39-kDa protein, full-length (1-319) (ligand)
2 | – | – | – | 88 | 30 | recombinant human full-length tissue factor pathway inhibitor (TFPI) (from UniProt P10646) (ligand)
